From article PMC3832495, “Human Factor H-Related Protein 2 (CFHR2) Regulates Complement Activation” (PLoS ONE, 2013)

What was measured:
N-biotinylated C3b = N-biotinylated C3b (UniProt P01024); assay: SPR; Biacore T200, 25°C; N-biotinylated C3b captured on a streptavidin-coated CM3 chip (520 RU); factor H or CFHR2 6.25–3200 nM in HBS-EP (10 mM HEPES pH 7.4, 150 mM NaCl, 50 µM EDTA, 0.005% P20), 30 µl/min; 1:1 model with mass transport term, KD from kinetic rate constants; one CFHR2 dimer regarded as one molecule
[1] = target: CFHR2/1-2 (N-terminal SCRs 1-2 of CFHR2) (human); assay: SEC-MALS; static light scattering (miniDawn TREOS, Optilab T-rEX) with size exclusion chromatography on Superdex 200 or Superdex 75; proteins purified by Ni2+-chelate chromatography, deglycosylated, non-reduced
C3dg = target: T1, C3dg (UniProt P01024 955-1303); assay: ELISA; C3b, C3c, C3dg or C3d (each 142 nM) coated on MaxiSorp plates; CFHR2 or factor H (each 0.07 µM) or CFHR2 fragments in equimolar amounts; detected with CFHR1 and factor H antisera; conditions: both partners purified
T1 construct: C3dg, cleavage fragment of complement C3; cloned with the printed primer pair; source: E. coli, pET200/D-Topo expression system, purified (Ni-NTA Superflow Cartridge), dialyzed against DPBS
T1 sequence (P01024 955-1303): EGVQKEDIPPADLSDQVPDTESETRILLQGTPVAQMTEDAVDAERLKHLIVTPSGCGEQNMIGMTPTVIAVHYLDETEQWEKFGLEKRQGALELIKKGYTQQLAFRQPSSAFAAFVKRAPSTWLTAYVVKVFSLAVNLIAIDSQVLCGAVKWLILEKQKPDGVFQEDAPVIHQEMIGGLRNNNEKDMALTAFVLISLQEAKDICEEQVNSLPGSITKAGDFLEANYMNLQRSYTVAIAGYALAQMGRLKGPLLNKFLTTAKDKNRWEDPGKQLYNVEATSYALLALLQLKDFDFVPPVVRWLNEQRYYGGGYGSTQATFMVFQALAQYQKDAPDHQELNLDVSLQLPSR

C3d = target: T2, C3d (UniProt P01024 1002-1303); assay: ELISA; competition: C3b or C3dg (methods; C3d in results) 5 µg/ml immobilised; constant CFHR2 (5 µg/ml, 0.07 µM) and increasing factor H (5–50 µg/ml, 0.033–0.33 µM); factor H detected with factor H/1-4 antiserum, CFHR2 with mAb A72; conditions: both partners purified
T2 construct: C3d, cleavage fragment of complement C3; source: bought: Complement Technology
T2 sequence (P01024 1002-1303): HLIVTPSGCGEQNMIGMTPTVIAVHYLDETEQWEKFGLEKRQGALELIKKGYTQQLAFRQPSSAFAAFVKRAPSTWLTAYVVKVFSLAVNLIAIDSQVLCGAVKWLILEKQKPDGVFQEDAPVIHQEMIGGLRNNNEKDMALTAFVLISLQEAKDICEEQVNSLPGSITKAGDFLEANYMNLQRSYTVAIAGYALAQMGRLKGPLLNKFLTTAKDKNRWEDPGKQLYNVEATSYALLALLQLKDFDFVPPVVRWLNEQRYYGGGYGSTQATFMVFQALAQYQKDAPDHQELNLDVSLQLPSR

[2] = target: the molecule itself; assay: SEC-MALS; static light scattering (miniDawn TREOS, Optilab T-rEX) with size exclusion chromatography on Superdex 200 or Superdex 75; proteins purified by Ni2+-chelate chromatography, deglycosylated, non-reduced

Sequence of Factor H (P08603 19-1231): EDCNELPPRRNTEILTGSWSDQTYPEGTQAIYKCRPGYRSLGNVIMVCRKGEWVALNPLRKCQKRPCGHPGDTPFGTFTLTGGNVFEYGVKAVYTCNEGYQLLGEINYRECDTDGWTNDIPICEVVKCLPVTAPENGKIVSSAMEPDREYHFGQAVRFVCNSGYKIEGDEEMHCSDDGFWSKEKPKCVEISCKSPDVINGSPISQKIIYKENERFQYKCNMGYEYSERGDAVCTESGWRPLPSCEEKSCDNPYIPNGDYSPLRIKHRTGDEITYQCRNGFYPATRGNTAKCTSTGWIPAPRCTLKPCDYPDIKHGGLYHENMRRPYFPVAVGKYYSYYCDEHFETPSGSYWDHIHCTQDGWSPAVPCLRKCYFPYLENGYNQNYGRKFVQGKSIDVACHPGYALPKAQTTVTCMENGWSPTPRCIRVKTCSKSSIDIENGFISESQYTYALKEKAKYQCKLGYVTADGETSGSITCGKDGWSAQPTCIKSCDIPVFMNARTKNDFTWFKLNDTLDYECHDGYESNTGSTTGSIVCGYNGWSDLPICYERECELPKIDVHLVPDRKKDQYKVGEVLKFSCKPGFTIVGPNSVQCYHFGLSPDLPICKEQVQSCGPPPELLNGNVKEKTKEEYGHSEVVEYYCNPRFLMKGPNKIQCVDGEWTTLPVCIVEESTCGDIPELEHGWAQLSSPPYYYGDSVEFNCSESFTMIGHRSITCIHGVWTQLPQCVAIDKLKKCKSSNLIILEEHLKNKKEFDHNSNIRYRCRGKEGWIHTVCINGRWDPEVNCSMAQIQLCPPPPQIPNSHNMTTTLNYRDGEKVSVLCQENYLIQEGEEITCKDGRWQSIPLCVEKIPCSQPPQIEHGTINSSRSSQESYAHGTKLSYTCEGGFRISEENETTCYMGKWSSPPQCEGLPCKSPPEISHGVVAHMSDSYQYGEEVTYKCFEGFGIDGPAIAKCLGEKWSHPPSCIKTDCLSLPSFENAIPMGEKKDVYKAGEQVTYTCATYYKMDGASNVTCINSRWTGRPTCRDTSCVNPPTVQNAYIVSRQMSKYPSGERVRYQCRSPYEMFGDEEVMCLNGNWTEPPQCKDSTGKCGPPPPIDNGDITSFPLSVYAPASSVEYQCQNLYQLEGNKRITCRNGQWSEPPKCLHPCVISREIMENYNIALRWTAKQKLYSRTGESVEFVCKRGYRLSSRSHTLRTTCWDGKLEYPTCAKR

| Kd (N-biotinylated C3b) [nM] | stoichiometry N [1] | binding result (C3dg) | binding result (C3d) | Molecule | stoichiometry N [2] |
| --- | --- | --- | --- | --- | --- |
| 570 |  |  |  | Factor H (from UniProt P08603 19-1231) (natural protein) |  |
|  | 2 |  |  | CFHR2/1-2 (N-terminal SCRs 1-2 of CFHR2) (domain or fragment) |  |
| 4200 |  | binds | binds | Human factor H-related protein 2 (CFHR2), recombinant full length (natural protein, UniProt P36980 19-270, looked up, Complement factor H-related protein 2 (CFHR2), human, four SCR domains; Secreted from Pichia; Several glycosylated forms; also called CFHR2 homodimer; CFHR2 dimer) EAMFCDFPKINHGILYDEEKYKPFSQVPTGEVFYYSCEYNFVSPSKSFWTRITCAEEGWSPTPKCLRLCFFPFVENGHSESSGQTHLEGDTVQIICNTGYRLQNNENNISCVERGWSTPPKCRSTISAEKCGPPPPIDNGDITSFLLSVYAPGSSVEYQCQNLYQLEGNNQITCRNGQWSEPPKCLDPCVISQEIMEKYNIKLKWTNQQKLYSRTGDIVEFVCKSGYHPTKSHSFRAMCQNGKLVYPSCEEK | 2 |
